Data from publication PMC11810782.

Biological target: GFP–TGN46 (UniProt O43493)
Experiment: single-molecule GFP step-photobleaching by TIRF (NativeNanoBleach); ChloroSMA60-extracted total membrane of cells expressing GFP–TGN46 passed over glass slides with streptavidin and biotinylated GFP nanobody; discs captured and GFP bleaching steps counted; 1,000–1,500 particles for each biological replicate, corrected for GFP maturation efficiency

Chain of GFP–TGN46, O43493 22-437 (natural protein; other documents disagree on this pair) (O43493 22-437): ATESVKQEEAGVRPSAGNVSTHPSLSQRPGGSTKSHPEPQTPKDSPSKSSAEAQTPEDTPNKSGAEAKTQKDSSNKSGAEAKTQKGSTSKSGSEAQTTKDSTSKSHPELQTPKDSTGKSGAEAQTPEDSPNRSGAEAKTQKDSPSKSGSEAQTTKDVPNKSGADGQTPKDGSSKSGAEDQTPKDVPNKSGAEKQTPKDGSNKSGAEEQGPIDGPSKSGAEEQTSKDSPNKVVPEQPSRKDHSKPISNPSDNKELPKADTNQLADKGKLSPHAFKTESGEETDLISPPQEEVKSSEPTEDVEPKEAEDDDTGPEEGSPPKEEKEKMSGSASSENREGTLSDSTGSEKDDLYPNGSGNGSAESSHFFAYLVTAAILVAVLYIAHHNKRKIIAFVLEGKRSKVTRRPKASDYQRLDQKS

stoichiometry N: 1 to 4
Substance: GFP–TGN46, O43493 22-437 (natural protein; other documents disagree on this pair)
